Results on eight molecules are retold here after patent US20240033341A1 (CALIFORNIA INSTITUTE OF TECHNOLOGY, published 2024).

Numbering of substitutions follows the chain as printed.

The labels stand for the following.
B1: 3BNC60 iGL IgG (antibody, V domains shown)
VH: not shown
VL: DIQMTQSPSSLSASVGDRVTITCQASQDISNYLNWYQQKPGKAPKLLIYDASNLETGVPSRFSGSGSGTDFTFTISSLQPEDIATYYCQQYEFIGPGTKVDIKR
B2: VRC01 iGL IgG (antibody, V domains shown)
VH: not shown
VL: EIVLTQSPATLSLSPGERATLSCRASQSVSSYLAWYQQKPGQAPRLLIYDASNRATGIPARFSGSGSGTDFTLTISSLEPEDFAVYYCQQYEFFGQGTKLEIKR
B3: IOMA IgG (antibody, V domains shown)
VH: EVQLVESGAQVKKPGASVTVSCTASGYKFTGYHMHWVRQAPGRGLEWMGWINPFRGAVKYPQNFRGRVSMTRDTSMEIFYMELSRLTSDDTAVYYCAREMFDSSADWSPWRGMVAWGQGTLVTVSS
VL: QSALTQPASVSGSPGQSITISCAGSSRDVGGFDLVSWYQQHPGKAPKLIIYEVNKRPSGISSRFSASKSGNTASLTISGLQEEDEAHYYCYSYADGVAFGGGTKLTVLG
notes: Mature CD4bs bNAb; also called mature IOMA
B4: IO-010 (antibody, V domains shown)
VH: QVQLVQSGAEVKKPGASVTVSCKASGYTFTGYHLHWVRQAPGQGLEWMGWINPFRGAIGYAQKFRGRVTMTRDTSIITAYMELRGLRSDDTAVYFCAREMFDSDDEWSPWRGMVAWGQGTLVTVSS
VL: QSALTQPASVSGSPGQSITISCTGTSSDIGGYNLVSWYQQHPGKAPKLMIYDVNKRPSGVSNRFSGSKSGNTASLTISGFQAEDEADYYCCSYADTLVFGGGTKLTVL
notes: also called 10-010
B5: IO-050 (antibody, V domains shown)
VH: QVQLVQSGAEVKKPGASVRVSCKASGYTFTDYEIHWVRQAPGQGLEWMGWINPFRGAVKYRQKFQGRVTMTRDPSITTAYMELSRLRSDDTARYYCAREMFDSDDEWSPWRGMVAWGQGTLVTVSS
VL: B4 VL with I29V, G31S, D52E, N54S, K55R, V98I
B6: IO-017 (antibody, V domains shown)
VH: B4 VH with I77N, E106D
VL: B4 VL with N33D
notes: also called 10-017
B7: IO-003 (antibody, V domains shown)
VH: QVQLVQSGAEVKKPGASVTVSCKASGYTFTDYFIHWVRQAPGQGLEWMGWINPFRGAVDYAQKFRGRVTMTRDTSITTAYMELSRLRSDDTAVYYCARAMFDSSDEWSPWHGLVAWGQGTLVTVSS
VL: QSALTQPASVSGSPGQSITISCTGTSRDIGSFNLVSWYQQHPGKAPKLMIYDVSKRPSGVSNRFSGSKSDNMASLIISGFQAEDEAEYFCCSFAGSLAFGGGTKLTVL
B8: IO-008 (antibody, V domains shown)
VH: QVQLVQSGAEVKKPGASVTVSCKASGYTFTGYELHWVRQAPGQGLEWMGWINPYRGAVKYAQKFQGRVTMTRDTSISTAYMVLNGLRSDDTAVYYCARDMFDSSDEWSPWRGMVAWGQGTPVTVSS
VL: B4 VL with I29V, G31S, N33D, D52E, N54S, F80L, T96S, L105V, V107G

In one assay the target is T1, IGT2 gp120 (HIV-1 (clade C strain 426c, engineered)). Description: ELISA with gp120 (FIG. 1E, FIG. 6J). (ELISA stands for enzyme-linked immunosorbent assay.)
In the case of B1, the binding result was “binds”.

The target of another assay is T2, IGT2 SOSIP (HIV-1 (clade C strain 426c, engineered)).
T2 construct: also called SOSIP version of IGT2
Description: SPR with SOSIP (FIG. 6I), ELISA (FIG. 1E).
On to B1, for which the binding result was “binds”.

Regarding B2, the binding result was “binds”.

In a further assay the target is T1, IGT2 gp120. Description: ELISA, gp120 coated on the plate, IgG titrated.
Take B2: the binding result is on record as “binds”.

The target in a further assay is 426c.TM4 gp120 (HIV-1 (clade C strain 426c, engineered)). Description: ELISA, gp120 coated on the plate, IgG titrated.
For the molecule B1, the binding result is listed as “binds”.

The target of another assay is T3, CE0217 (Autologous).
T3 construct: also called CE0217 SOSIP
Nature of the assay: Env ELISA, IgG dilution series on SOSIP trimer, area under the binding curve.
B3: the binding result is “binds”.

For the molecule B4, the binding result is on record as “binds”.

B5: the binding result is listed as “binds”.

On to B6, for which the binding result is on record as “binds”.

In another assay the target is BG505. The assay is described as above.
On to B3, for which the binding result is given as “binds”.

For the molecule B7, the binding result is given as “binds”.

For B4, the binding result is listed as “binds”.

Regarding B5, the binding result is “no binding”.

As to B8, the binding result is recorded as “binds”.

A further assay has as its target T4, CNE20.
T4 construct: also called CNE20 SOSIP
The assay is described as above.
As to B3, the binding result is “binds”.

For the molecule B7, the binding result is listed as “binds”.

Consider B4, for which the binding result is on record as “binds”.

On to B5, for which the binding result is given as “binds”.

As for B8, the binding result is recorded as “binds”.

As for B6, the binding result is reported as “no binding”.

The next assay concerns the target CNE20 N276A. The description is as above.
Regarding B3, the binding result is given as “binds”.

For the molecule B7, the binding result is “binds”.

B4: the binding result was “binds”.

Take B5: the binding result was “binds”.

B8: the binding result is listed as “binds”.

In the case of B6, the binding result is on record as “binds”.
